Results taken from article PMC4022456, “Phosphorylation of a WRKY Transcription Factor by MAPKs Is Required for Pollen Development and Function in Arabidopsis”.

Molecular target: WRKY34 (WT) (Arabidopsis thaliana, UniProt O65590 1-568)
Experiment: EMSA; competed by 250-fold unlabeled W-box tested; 20 mM HEPES pH 7.9, 50 mM KCl, 0.5 mM DTT, 0.1 mM EDTA, 0.1 ug/uL herring sperm DNA, room temperature 30 min; 1 ug protein, 2 pmol probe; 5% native PAGE, 0.5x TBE
Conditions: protein: recombinant; label: 32P 5' end; blunt

Chain of WRKY34 (WT) (O65590 whole entry): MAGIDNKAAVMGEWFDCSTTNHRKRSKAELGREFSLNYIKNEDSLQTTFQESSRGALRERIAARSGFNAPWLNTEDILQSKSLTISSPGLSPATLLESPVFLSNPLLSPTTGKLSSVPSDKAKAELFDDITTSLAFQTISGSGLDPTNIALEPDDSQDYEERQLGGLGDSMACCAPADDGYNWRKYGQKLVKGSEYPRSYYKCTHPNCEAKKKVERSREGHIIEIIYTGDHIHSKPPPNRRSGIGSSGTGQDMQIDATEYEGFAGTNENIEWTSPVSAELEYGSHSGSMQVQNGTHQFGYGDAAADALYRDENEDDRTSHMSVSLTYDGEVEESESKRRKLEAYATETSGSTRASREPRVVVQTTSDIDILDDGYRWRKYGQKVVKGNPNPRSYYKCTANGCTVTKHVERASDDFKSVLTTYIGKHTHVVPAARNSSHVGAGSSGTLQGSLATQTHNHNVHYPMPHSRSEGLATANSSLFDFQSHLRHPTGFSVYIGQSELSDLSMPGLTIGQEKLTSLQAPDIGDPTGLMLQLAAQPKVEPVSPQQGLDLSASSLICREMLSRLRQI

B1: W-box probe (three W boxes) (dsDNA)
DNA 1: CGTTGACCGTTGACCGAGTTGACTTTTTA
DNA 2: TAAAAAGTCAACTCGGTCAACGGTCAACG
B1: binds.
